Sequences and labels used below:
B1: Human hexokinase I (HK‐I), recombinant (enzyme, UniProt P19367 1-917, looked up)
chain: MIAAQLLAYYFTELKDDQVKKIDKYLYAMRLSDETLIDIMTRFRKEMKNGLSRDFNPTATVKMLPTFVRSIPDGSEKGDFIALDLGGSSFRILRVQVNHEKNQNVHMESEVYDTPENIVHGSGSQLFDHVAECLGDFMEKRKIKDKKLPVGFTFSFPCQQSKIDEAILITWTKRFKASGVEGADVVKLLNKAIKKRGDYDANIVAVVNDTVGTMMTCGYDDQHCEVGLIIGTGTNACYMEELRHIDLVEGDEGRMCINTEWGAFGDDGSLEDIRTEFDREIDRGSLNPGKQLFEKMVSGMYLGELVRLILVKMAKEGLLFEGRITPELLTRGKFNTSDVSAIEKNKEGLHNAKEILTRLGVEPSDDDCVSVQHVCTIVSFRSANLVAATLGAILNRLRDNKGTPRLRTTVGVDGSLYKTHPQYSRRFHKTLRRLVPDSDVRFLLSESGSGKGAAMVTAVAYRLAEQHRQIEETLAHFHLTKDMLLEVKKRMRAEMELGLRKQTHNNAVVKMLPSFVRRTPDGTENGDFLALDLGGTNFRVLLVKIRSGKKRTVEMHNKIYAIPIEIMQGTGEELFDHIVSCISDFLDYMGIKGPRMPLGFTFSFPCQQTSLDAGILITWTKGFKATDCVGHDVVTLLRDAIKRREEFDLDVVAVVNDTVGTMMTCAYEEPTCEVGLIVGTGSNACYMEEMKNVEMVEGDQGQMCINMEWGAFGDNGCLDDIRTHYDRLVDEYSLNAGKQRYEKMISGMYLGEIVRNILIDFTKKGFLFRGQISETLKTRGIFETKFLSQIESDRLALLQVRAILQQLGLNSTCDDSILVKTVCGVVSRRAAQLCGAGMAAVVDKIRENRGLDRLNVTVGVDGTLYKLHPHFSRIMHQTVKELSPKCNVSFLLSEDGSGKGAALITAVGVRLRTEASS
modifications: fluorescently labeled using a NanoTemper BLUE protein‐labeling kit (in the MST)

Ends that are not written are not given here.

One experiment has as its system T‐Rex‐293. Kind of experiment: Cell death, PI staining and FACS. It counts as cell-based, human. As for the experimental part: (§1) Leukemia cells, U‐937, MEC‐1 cells (4 × 10^5 or 8 × 10^5 cells/sample, respectively), as well as other leukemia or suspension cell lines, were incubated in 200 μL serum‐free medium with various concentrations of the peptide for 90 min at 23–25 °C, collected by centrifugation (500 g, 5 min), washed with PBS, and analyzed for cell death. Adherent cells (6 × 10^5 mL^−1 at 70–80% confluence) were incubated with the peptide of interest in 500 μL serum‐free recommended culture medium for 3–6 h at 37 °C and 5% CO2. The cells were then trypsinized, centrifuged (1500 g, 5 min), washed with PBS, and analyzed for the desired activity. Following peptide treatment, cells were subjected to cell death analysis. […] PRO software (BD Biosciences, San Jose, CA, USA).
(§2) For each line, cells were incubated with different peptide concentrations, and cell death was determined by PI staining and FACS analysis (Figs 1, 2, 3).

A further experiment concerns PWR‐1E. In words: Cell death, PI staining and FACS. The experiment is classed as cell-based. Conditions: 6 h, PI/FACS (Fig. 2G). As for the experimental part: as §1, §2
A further experiment concerns PANC1. In words: Cell death, PI staining and FACS. The experiment is classed as cell-based. The following applies: PANC1 (Group 3, Fig. 1H); 6 h; about 10% in the absence of peptides. As for the experimental part: as §1, §2
The target of experiment [1] is voltage‐dependent anion channel 1 (VDAC1) (human (endogenous in HeLa), UniProt P21796 1-283). In words: cell-based or functional assay.
Experiment [2] addresses T1, Human hexokinase II (HK‐II), recombinant (human, UniProt P52789 1-917, fluorescently labeled using a NanoTemper BLUE protein‐labeling kit (in the MST)).
T1 chain: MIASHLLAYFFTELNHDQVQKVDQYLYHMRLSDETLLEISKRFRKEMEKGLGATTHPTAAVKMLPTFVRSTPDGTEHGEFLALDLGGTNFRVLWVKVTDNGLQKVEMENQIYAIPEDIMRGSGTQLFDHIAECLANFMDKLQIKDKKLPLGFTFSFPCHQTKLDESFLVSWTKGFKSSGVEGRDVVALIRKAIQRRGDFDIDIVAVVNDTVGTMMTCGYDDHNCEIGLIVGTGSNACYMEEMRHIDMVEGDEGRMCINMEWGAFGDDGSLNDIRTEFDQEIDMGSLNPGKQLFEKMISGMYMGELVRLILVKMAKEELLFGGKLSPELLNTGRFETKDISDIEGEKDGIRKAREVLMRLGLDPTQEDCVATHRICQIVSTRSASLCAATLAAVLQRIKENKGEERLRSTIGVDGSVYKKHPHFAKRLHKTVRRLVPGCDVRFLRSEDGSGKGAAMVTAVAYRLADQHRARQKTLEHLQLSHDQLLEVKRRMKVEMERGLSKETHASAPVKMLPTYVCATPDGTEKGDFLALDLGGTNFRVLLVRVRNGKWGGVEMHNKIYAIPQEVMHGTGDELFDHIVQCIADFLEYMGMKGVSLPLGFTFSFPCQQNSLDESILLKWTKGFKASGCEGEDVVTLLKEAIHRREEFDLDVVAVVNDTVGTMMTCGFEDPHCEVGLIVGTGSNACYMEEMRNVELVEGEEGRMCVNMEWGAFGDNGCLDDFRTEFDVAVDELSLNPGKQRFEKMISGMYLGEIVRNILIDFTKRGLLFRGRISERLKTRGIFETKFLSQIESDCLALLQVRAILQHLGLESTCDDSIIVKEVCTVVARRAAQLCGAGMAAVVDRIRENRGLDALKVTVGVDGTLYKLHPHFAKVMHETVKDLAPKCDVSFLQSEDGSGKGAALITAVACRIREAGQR
In words: MST.

The target of experiment [3] is T2, Human hexokinase II (HK‐II), recombinant (human, UniProt P52789 1-917, fluorescently labeled using a NanoTemper BLUE protein‐labeling kit (in the MST)).
T2 construct: hexokinase II (HK‐II), human, cloned into plasmid pET‐His; source: E. coli BL21, IPTG induction, purified (HiTrap nickel column, Blue HiTrap column)
T2 sequence (looked up): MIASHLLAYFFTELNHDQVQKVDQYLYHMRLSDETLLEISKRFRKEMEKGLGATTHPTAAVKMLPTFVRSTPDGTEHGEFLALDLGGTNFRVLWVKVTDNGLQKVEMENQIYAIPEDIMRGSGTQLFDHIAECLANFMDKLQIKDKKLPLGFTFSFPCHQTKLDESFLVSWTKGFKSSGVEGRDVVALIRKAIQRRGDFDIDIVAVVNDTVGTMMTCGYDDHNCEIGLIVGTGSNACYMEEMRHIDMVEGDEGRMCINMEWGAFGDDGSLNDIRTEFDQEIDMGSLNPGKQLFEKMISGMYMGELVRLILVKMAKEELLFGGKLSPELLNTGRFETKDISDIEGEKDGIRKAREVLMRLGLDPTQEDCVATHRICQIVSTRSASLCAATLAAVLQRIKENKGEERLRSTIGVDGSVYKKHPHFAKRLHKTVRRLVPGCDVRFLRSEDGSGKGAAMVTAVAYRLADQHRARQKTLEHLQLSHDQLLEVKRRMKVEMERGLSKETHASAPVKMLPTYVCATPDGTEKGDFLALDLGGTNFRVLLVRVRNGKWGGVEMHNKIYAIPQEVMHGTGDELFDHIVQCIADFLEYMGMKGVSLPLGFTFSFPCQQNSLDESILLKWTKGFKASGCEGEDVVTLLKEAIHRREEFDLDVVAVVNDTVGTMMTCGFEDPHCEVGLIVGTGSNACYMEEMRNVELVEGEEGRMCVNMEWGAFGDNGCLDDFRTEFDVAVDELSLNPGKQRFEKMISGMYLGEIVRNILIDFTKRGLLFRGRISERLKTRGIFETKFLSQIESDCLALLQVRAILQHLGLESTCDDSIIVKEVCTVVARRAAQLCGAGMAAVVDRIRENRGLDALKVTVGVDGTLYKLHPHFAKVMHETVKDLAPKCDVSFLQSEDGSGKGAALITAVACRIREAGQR
Kind of experiment: MST; fluorescently labeled HK‐I (830 nM) or HK‐II (100 nM) incubated 20 min with peptide (1–100 μM) in PBS; NanoTemper Monolith‐NT115, 40% LED, 40% IR laser power. Conditions: both partners purified.

The target of experiment [4] is B1. The description is as above. The following applies: both partners purified.

For “HAIYPRHSWTWE-199-KKLETA VNLAWTAGNSN-216-KWTWK [Tf‐LP4]”, the “cell death induction in noncancerous cells” value in the experiment with T‐Rex‐293 (T‐Rex‐293, 6 h, PI/FACS (Fig. 2E)) is reported as “almost no cell death induction”; in the experiment on PWR‐1E, “almost no cell death induction”.

“MAVPPTYADLGKSARDVFTKGYGFGLRQIKIWFQNRRMKWKK [N‐Ter‐Antp]”: the “steady‐state level of cell death” value is reported as “about 50%” with T‐Rex‐293 (T‐Rex‐293 (Group 3, Fig. 1I), 6 h, about 10% in the absence of peptides) and “about 50%” in the experiment with PANC1.

As for B1, in experiment [1], the “HK‐I in the cytosolic fraction (0.025% digitonin fractionation, immunoblot) of A549 cells treated with Tf‐D‐LP4 (3, 5, 10 μM, 3 h)” value was about 2 fold and the “HK‐I in the cytosolic fraction (0.025% digitonin fractionation, immunoblot) of HeLa cells treated with R‐Tf‐D‐LP4 (3, 5, 10 μM, 3 h)” value is about 2 fold.

B2: Antp‐LP4 (peptide)
peptide: RQIKIWFQNRRMKWKKSWTWEKKLETAVNLAWTAGNSNKWTWK
notes: amino acids added to form a loop‐shaped tryptophan zipper (N‐terminal arm); amino acids added to form a loop‐shaped tryptophan zipper (C‐terminal arm); 43 residues as printed; source: synthetic peptide (GL Biochem, > 85% purity)
Turning to B2, the Kd (commonly the concentration at which binding is half-saturated) in experiment [2] turned out to be 7.1 µM. Also, the binding result in experiment [3] and in experiment [4] was “binds” in each case.
